Changes are numbered by the printed parent chain. Names and notes keep the numbering of the source.
B1: A114C Ec-MscL (Escherichia coli mechanosensitive channel of large conductance, cysteine mutant) (natural protein, UniProt P0A742 1-136, looked up)
chain: MSIIKEFREFAMRGNVVDLAVGVIIGAAFGKIVSSLVADIIMPPLGLLIGGIDFKQFAVTLRDAQGDIPAVVMHYGVFIQNVFDFLIVAFAIFMAIKLINKLNRKKEEPAAAPCPTKEEVLLTEIRDLLKEQNNRS
notes: MscL, mechanosensitive channel of large conductance, Escherichia coli (Ec-MscL); single cysteine mutant; source: E. coli PB104 (pB10) or PB116 (pET21a), purified (Talon resin, in DM); not shown: His6, C-terminal, kept
B2: K117C Ec-MscL (Escherichia coli mechanosensitive channel of large conductance, cysteine mutant) (natural protein, UniProt P0A742 1-136, looked up)
chain: B1 chain with C114A, K117C
notes: as for B1
B3: T116C Ec-MscL (Escherichia coli mechanosensitive channel of large conductance, cysteine mutant) (natural protein, UniProt P0A742 1-136, looked up)
chain: B1 chain with C114A, T116C
notes: as for B1

How the values were obtained:
[1] = target: T1, Ec-MscL (mechanosensitive channel of large conductance) (Escherichia coli, UniProt P0A742); test: MicroScale Thermophoresis; supported by patch clamp activation at […] DHS and MTS-PEG5000 competition on cysteine mutants; type: binding
T1 construct: wild type, recombinant, detergent-solubilized channel

[2] = target: T2, Ec-MscL (mechanosensitive channel of large conductance) (Escherichia coli, UniProt P0A742, K55T); test: MicroScale Thermophoresis, labeled purified protein in DDM (main text prints […]); type: binding
T2 construct: recombinant, detergent-solubilized channel

[3] = target: the molecule itself; test: non-reducing SDS-PAGE with Western blot (dimer band); purified His-tagged cysteine mutants, 5 ug in 50 mM KPi pH 7.5, 150 mM NaCl, 4 mM DM, 22°C; nonreducing sample buffer with iodoacetamide; blot with Penta.His; samples of the MTS-PEG5000 versus DHS competition experiment, mock lanes included

T2 sequence (P0A742 whole entry K55T): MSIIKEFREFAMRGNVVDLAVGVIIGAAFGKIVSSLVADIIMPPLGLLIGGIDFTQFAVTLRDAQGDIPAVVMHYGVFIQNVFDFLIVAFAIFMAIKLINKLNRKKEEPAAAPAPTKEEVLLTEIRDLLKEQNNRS
T1 sequence (P0A742 whole entry): as the sequence (P0A742 whole entry K55T) above, with T55K counted along it

Molecule	Kd [1] [mM]	Kd [2] [mM]	binding result [3]
CN[C@@H]1[C@H](O[C@H]2[C@H](O[C@H]3[C@H](O)[C@@H](O)[C@H](NC(=N)N)[C@@H](O)[C@@H]3NC(=N)N)O[C@@H](C)[C@]2(O)CO)O[C@@H](CO)[C@H](O)[C@H]1O [DHS, dihydrostreptomycin]	9.81 ± 0.13	0.601 ± 0.0551	–
B1	–	–	binds
B2	–	–	binds
B3	–	–	binds

— paper PMC4900634 (PLoS Biology, 2016)
